According to patent publication US20260092093A1:

Key:
[1] = biological target: T1, hIL-18 receptor (hIL-18Rα and hIL-18Rβ) (human) (UniProt Q13478); test: cell-based or functional assay
T1 sequence (looked up) 1: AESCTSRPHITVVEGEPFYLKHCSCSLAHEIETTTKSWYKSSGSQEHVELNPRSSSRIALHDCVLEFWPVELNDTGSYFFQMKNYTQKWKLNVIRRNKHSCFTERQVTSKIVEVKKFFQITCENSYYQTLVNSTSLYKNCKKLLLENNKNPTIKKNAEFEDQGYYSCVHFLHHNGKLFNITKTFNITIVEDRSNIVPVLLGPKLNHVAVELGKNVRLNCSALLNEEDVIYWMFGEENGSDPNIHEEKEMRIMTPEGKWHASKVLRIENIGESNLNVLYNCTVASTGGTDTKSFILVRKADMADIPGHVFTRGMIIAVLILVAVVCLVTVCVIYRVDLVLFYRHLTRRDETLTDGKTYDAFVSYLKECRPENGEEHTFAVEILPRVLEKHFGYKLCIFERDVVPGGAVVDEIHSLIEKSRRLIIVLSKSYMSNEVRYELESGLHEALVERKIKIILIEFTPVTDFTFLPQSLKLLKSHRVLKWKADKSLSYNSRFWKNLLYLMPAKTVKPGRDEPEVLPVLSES
T1 sequence (looked up) 2: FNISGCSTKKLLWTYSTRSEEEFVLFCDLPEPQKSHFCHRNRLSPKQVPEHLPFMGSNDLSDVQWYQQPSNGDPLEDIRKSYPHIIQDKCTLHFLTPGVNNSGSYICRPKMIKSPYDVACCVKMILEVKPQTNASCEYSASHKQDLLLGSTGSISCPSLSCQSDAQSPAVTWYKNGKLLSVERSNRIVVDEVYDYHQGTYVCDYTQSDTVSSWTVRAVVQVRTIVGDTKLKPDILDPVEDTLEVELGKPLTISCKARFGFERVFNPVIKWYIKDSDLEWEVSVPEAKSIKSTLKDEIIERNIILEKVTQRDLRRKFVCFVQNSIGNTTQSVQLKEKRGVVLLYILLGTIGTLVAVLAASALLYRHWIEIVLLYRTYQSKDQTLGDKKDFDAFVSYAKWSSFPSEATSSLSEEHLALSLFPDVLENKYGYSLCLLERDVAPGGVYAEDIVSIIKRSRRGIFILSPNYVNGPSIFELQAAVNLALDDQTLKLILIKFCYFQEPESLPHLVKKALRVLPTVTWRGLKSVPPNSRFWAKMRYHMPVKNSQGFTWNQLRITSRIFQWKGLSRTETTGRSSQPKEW

hIL-18BP-hFc (human) = hIL-18BP-hFc (human) (UniProt O95998); test: cell-based or functional assay
Chain of hIL-18BP-hFc (human) (O95998 31-194 limits assumed): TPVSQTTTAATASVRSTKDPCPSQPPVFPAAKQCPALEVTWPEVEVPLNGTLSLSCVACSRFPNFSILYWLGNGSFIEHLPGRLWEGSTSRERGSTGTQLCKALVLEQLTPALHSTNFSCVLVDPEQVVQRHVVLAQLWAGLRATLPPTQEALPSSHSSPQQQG

Chain of wild-type human IL-18 (Q14116 37-193 limits assumed): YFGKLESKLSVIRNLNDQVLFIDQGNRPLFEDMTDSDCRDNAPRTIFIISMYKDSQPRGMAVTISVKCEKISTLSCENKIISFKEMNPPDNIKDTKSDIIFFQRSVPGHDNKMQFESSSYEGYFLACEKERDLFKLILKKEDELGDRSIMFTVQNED

- EC50 (nM), PBMC assay (hIFNγ release) [1]: 0.17 nM
- EC50 (nM), in vitro IL-18 Receptor Mediated Signaling Assay [1]: 0.066 nM
- EC50 (nM) + 1 µg/ml hIL-18BP-hFc, in vitro IL-18 Receptor Mediated Signaling Assay (hIL-18BP-hFc (human)): 8.2 nM
- EC50 (nM) in the Presence of 1 µg/mL hIL-18BP-hFc, PBMC assay (hIFNγ release) (hIL-18BP-hFc (human)): 5.9 nM
- EC50 Fold Change (+BP/-BP), PBMC assay (hIFNγ release) (hIL-18BP-hFc (human)): 34.7 fold
- EC50 Fold Change (+BP/-BP), hIL-18 reporter assay (hIL-18BP-hFc (human)): 83.3 fold
Substance: wild-type human IL-18 (from UniProt Q14116 37-193) (ligand)
